According to PMC3285539 (Nature, 2012):

T1: Rpn2 (S. cerevisiae, UniProt P32565 1-945)
T1 sequence: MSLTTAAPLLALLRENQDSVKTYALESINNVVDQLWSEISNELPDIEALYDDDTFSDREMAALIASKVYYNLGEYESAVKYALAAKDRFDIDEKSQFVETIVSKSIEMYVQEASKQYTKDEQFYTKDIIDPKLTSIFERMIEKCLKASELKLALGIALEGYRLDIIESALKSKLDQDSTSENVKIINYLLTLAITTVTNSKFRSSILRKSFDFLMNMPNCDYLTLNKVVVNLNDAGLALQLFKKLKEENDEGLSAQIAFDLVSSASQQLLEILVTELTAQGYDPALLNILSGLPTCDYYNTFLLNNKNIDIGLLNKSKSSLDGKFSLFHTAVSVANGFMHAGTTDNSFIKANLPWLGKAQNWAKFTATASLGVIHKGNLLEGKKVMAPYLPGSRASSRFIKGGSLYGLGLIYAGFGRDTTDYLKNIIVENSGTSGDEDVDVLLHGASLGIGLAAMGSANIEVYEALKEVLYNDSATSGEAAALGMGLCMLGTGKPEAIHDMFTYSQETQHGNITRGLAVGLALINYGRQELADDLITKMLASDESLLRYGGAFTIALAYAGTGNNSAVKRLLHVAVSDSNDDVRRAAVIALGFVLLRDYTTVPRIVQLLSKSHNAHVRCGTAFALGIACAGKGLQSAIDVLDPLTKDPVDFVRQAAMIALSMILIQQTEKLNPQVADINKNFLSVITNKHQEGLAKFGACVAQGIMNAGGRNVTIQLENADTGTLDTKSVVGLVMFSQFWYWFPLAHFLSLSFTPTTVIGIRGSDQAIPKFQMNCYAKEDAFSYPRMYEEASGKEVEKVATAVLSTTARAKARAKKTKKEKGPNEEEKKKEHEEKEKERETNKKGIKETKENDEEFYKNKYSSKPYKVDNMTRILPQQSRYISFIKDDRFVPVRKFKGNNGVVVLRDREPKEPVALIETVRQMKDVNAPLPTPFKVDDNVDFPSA

T2: Rpn5 (S. cerevisiae, UniProt Q12250 1-445)
T2 sequence: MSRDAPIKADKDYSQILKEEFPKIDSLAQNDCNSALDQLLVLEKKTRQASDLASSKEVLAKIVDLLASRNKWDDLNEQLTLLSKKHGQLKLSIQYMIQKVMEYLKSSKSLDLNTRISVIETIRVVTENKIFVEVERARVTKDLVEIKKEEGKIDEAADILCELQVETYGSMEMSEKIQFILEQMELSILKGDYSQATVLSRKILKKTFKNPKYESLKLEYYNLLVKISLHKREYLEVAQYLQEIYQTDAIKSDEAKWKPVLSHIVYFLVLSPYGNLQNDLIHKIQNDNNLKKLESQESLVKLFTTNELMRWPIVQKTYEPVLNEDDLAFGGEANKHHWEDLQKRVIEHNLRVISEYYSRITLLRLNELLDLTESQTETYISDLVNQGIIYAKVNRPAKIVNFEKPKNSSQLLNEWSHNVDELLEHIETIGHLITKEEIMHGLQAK

T3: Rpn6 (S. cerevisiae, UniProt Q12377 1-434)
T3 sequence: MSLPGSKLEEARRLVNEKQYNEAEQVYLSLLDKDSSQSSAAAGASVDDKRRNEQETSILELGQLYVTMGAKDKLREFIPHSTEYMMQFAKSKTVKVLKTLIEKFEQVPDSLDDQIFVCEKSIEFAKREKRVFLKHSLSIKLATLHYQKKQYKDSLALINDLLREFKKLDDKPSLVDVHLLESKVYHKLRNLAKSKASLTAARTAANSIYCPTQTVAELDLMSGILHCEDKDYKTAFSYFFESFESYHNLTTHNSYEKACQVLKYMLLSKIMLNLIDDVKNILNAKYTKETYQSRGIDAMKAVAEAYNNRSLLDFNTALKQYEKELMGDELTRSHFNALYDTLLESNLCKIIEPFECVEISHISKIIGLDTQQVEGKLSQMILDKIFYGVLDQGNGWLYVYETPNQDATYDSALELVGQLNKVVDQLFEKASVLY

T4: Rpn1 (S. cerevisiae, UniProt P38764 1-993)
T4 sequence: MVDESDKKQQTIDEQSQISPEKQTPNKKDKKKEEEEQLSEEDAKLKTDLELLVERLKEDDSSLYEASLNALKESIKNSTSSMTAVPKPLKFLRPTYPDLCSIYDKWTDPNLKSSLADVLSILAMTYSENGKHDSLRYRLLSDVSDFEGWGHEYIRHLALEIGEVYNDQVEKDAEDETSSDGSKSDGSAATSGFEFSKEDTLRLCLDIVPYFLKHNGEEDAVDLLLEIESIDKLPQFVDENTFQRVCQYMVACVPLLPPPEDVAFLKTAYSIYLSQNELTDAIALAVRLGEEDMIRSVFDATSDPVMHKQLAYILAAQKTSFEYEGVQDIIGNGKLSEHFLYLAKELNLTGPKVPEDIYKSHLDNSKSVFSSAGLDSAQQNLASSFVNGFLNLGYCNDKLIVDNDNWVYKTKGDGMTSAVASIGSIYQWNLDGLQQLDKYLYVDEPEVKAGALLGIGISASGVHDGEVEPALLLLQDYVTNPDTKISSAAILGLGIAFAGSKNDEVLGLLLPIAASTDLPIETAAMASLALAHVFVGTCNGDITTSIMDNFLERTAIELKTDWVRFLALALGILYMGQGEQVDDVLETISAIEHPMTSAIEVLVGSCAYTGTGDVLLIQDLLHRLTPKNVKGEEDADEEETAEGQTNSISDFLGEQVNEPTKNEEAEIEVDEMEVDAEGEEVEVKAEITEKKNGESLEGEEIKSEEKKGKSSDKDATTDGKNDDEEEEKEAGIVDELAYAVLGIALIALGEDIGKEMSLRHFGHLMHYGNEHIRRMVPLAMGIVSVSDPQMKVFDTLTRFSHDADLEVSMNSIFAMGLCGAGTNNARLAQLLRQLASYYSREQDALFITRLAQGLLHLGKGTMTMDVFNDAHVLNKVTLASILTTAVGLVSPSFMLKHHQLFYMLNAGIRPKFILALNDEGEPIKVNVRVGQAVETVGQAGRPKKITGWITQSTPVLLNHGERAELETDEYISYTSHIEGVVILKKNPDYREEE

B1: Rpn7 (natural protein)
chain: MVDVEEKSQEVEYVDPTVNRVPNYEVSEKAFLLTQSKVSIEQRKEAAEFVLAKIKEEEMAPYYKYLCEEYLVNNGQSDLEHDEKSDSLNEWIKFDQELYNELCKKNESKIKELNEKIQKLEEDDEGELEQAQAWINLGEYYAQIGDKDNAEKTLGKSLSKAISTGAKIDVMLTIARLGFFYNDQLYVKEKLEAVNSMIEKGGDWERRNRYKTYYGIHCLAVRNFKEAAKLLVDSLATFTSIELTSYESIATYASVTGLFTLERTDLKSKVIDSPELLSLISTTAALQSISSLTISLYASDYASYFPYLLETYANVLIPCKYLNRHADFFVREMRRKVYAQLLESYKTLSLKSMASAFGVSVAFLDNDLGKFIPNKQLNCVIDRVNGIVETNRPDNKNAQYHLLVKQGDGLLTKLQKYGAAVRLTGSDRV
B2: Rpn13 (natural protein)
chain: MSMSSTVIKFRAGVCEYNEDSRLCTPIPVQGEIEIKPNEEEELGFWDFEWRPTEKPVGRELDPISLILIPGETMWVPIKSSKSGRIFALVFSSNERYFFWLQEKNSGNLPLNELSAKDKEIYNKMIGVLNNSSESDEEESNDEKQKAQDVDVSMQD
B3: 20S core subunit α1 (natural protein)
chain: MSGAAAASAAGYDRHITIFSPEGRLYQVEYAFKATNQTNINSLAVRGKDCTVVISQKKVPDKLLDPTTVSYIFCISRTIGMVVNGPIPDARNAALRAKAEAAEFRYKYGYDMPCDVLAKRMANLSQIYTQRAYMRPLGVILTFVSVDEELGPSIYKTDPAGYYVGYKATATGPKQQEITTNLENHFKKSKIDHINEESWEKVVEFAITHMIDALGTEFSKNDLEVGVATKDKFFTLSAENIEERLVAIAEQD
B4: 20S core subunit α3 (natural protein)
chain: MGSRRYDSRTTIFSPEGRLYQVEYALESISHAGTAIGIMASDGIVLAAERKVTSTLLEQDTSTEKLYKLNDKIAVAVAGLTADAEILINTARIHAQNYLKTYNEDIPVEILVRRLSDIKQGYTQHGGLRPFGVSFIYAGYDDRYGYQLYTSNPSGNYTGWKAISVGANTSAAQTLLQMDYKDDMKVDDAIELALKTLSKTTDSSALTYDRLEFATIRKGANDGEVYQKIFKPQEIKDILVKTGITKKDEDEEADEDMK
B5: 20S core subunit α2 (natural protein)
chain: MTDRYSFSLTTFSPSGKLGQIDYALTAVKQGVTSLGIKATNGVVIATEKKSSSPLAMSETLSKVSLLTPDIGAVYSGMGPDYRVLVDKSRKVAHTSYKRIYGEYPPTKLLVSEVAKIMQEATQSGGVRPFGVSLLIAGHDEFNGFSLYQVDPSGSYFPWKATAIGKGSVAAKTFLEKRWNDELELEDAIHIALLTLKESVEGEFNGDTIELAIIGDENPDLLGYTGIPTDKGPRFRKLTSQEINDRLEAL
B6: Rpn12 (natural protein)
chain: MPSLAELTKSLSIAFENGDYAACEKLLPPIKIELIKNNLLIPDLSIQNDIYLNDLMITKRILEVGALASIQTFNFDSFENYFNQLKPYYFSNNHKLSESDKKSKLISLYLLNLLSQNNTTKFHSELQYLDKHIKNLEDDSLLSYPIKLDRWLMEGSYQKAWDLLQSGSQNISEFDSFTDILKSAIRDEIAKNTELSYDFLPLSNIKALLFFNNEKETEKFALERNWPIVNSKVYFNNQSKEKADYEDEMMHEEDQKTNIIEKAMDYAISIENIV
B7: Ubp6 (enzyme)
chain: MSGETFEFNIRHSGKVYPITLSTDATSADLKSKAEELTQVPSARQKYMVKGGLSGEESIKIYPLIKPGSTVMLLGTPDANLISKPAKKNNFIEDLAPEQQVQQFAQLPVGFKNMGNTCYLNATLQALYRVNDLRDMILNYNPSQGVSNSGAQDEEIHKQIVIEMKRCFENLQNKSFKSVLPIVLLNTLRKCYPQFAERDSQGGFYKQQDAEELFTQLFHSMSIVFGDKFSEDFRIQFKTTIKDTANDNDITVKENESDSKLQCHISGTTNFMRNGLLEGLNEKIEKRSDLTGANSIYSVEKKISRLPKFLTVQYVRFFWKRSTNKKSKILRKVVFPFQLDVADMLTPEYAAEKVKVRDELRKVEKEKNEKEREIKRRKFDPSSSENVMTPREQYETQVALNESEKDQWLEEYKKHFPPNLEKGENPSCVYNLIGVITHQGANSESGHYQAFIRDELDENKWYKFNDDKVSVVEKEKIESLAGGGESDSALILMYKGFGL
B8: Rpt3 (natural protein)
chain: MEELGIVTPVEKAVEEKPAVKSYASLLAQLNGTVNNNSALSNVNSDIYFKLKKLEKEYELLTLQEDYIKDEQRHLKRELKRAQEEVKRIQSVPLVIGQFLEPIDQNTGIVSSTTGMSYVVRILSTLDRELLKPSMSVALHRHSNALVDILPPDSDSSISVMGENEKPDVTYADVGGLDMQKQEIREAVELPLVQADLYEQIGIDPPRGVLLYGPPGTGKTMLVKAVANSTKAAFIRVNGSEFVHKYLGEGPRMVRDVFRLARENAPSIIFIDEVDSIATKRFDAQTGSDREVQRILIELLTQMDGFDQSTNVKVIMATNRADTLDPALLRPGRLDRKIEFPSLRDRRERRLIFGTIASKMSLAPEADLDSLIIRNDSLSGAVIAAIMQEAGLRAVRKNRYVILQSDLEEAYATQVKTDNTVDKFDFYK

Key:
Rpt2 = Rpt2 (S. cerevisiae, UniProt P40327 1-437); assay: cryo-EM structure
Rpn2 = molecular target: T1, Rpn2; assay: cryo-EM structure
Rpt3 = molecular target: B8; assay: cryo-EM structure
Rpn5 = molecular target: T2, Rpn5; assay: cryo-EM structure
Rpn6 = molecular target: T3, Rpn6; assay: cryo-EM structure
Rpn1 = molecular target: T4, Rpn1; assay: electron microscopy, variance maps

Chain of Rpt2 (P40327 whole entry): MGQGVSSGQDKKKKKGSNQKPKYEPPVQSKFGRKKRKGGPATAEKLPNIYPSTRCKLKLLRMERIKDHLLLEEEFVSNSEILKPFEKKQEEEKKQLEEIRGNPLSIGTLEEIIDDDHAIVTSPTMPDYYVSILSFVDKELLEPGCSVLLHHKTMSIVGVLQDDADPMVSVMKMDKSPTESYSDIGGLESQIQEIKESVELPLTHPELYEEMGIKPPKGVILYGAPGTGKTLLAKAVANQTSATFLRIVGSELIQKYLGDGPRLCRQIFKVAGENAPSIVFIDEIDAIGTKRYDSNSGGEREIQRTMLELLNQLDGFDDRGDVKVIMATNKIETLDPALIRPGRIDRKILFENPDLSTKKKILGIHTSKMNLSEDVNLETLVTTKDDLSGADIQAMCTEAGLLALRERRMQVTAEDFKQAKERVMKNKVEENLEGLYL

Binder: B1
binding result (Rpt2): binds

Binder: B2
binding result (Rpn2): binds

Binder: B3
binding result (Rpt3): binds | binding result (Rpn5): binds

Binder: B4
binding result (Rpt2): binds

Binder: B5
binding result (Rpt3): binds | binding result (Rpn6): binds

Binder: B6
binding result (Rpn2): binds

Binder: B7
binding result (Rpn1): binds

Binder: B8
binding result (Rpn2): binds | binding result (Rpn5): binds | binding result (Rpn6): binds
